# Results taken from patent publication US20170165335A1 (IMMATICS BIOTECHNOLOGIES, published 2017).
# Target: T1, peptide-receptive MHC class I molecule (HLA-A*02:01 with beta-2-microglobulin) of the UV-ligand exchange assay (human)
# Assay: UV-ligand exchange + anti-b2m ELISA; peptide exchange yield grade (++ = 20%-49%)
# Excerpt: (§1) Candidate peptides for T cell based therapies according to the present invention were further tested for their MHC binding capacity (affinity). The individual peptide-MHC complexes were produced by UV-ligand exchange, where a UV-sensitive peptide is cleaved upon UV-irradiation, and exchanged with the peptide of interest as analyzed. Only peptide candidates that can effectively bind and stabilize the peptide-receptive MHC molecules prevent dissociation of the MHC complexes. To determine the yield of the exchange reaction, an ELISA was performed based on the detection of the light chain (β2m) of stabilized MHC complexes. The assay was performed as generally described in Rodenko et al. (Rodenko et al., 2006).
# (§2) 96 well MAXISorp plates (NUNC) were coated over night with 2 ug/ml streptavidin in PBS at room temperature, washed 4× and blocked for 1 h at 37° C. in 2% BSA containing blocking buffer. Refolded HLA-A*02:01/MLA-001 monomers served as standards, covering the range of 15-500 ng/ml. Peptide-MHC monomers of the UV-exchange reaction were diluted 100 fold in blocking buffer. Samples were incubated for 1 h at 37° C., washed four times, incubated with 2 ug/ml HRP conjugated anti-β2m for 1 h at 37° C., washed again and detected with TMB solution that is stopped with […]. Absorption was measured at 450 nm. Candidate peptides that show a high exchange yield (preferably higher than 50%, most preferred higher than 75%) are generally preferred for a generation and production of antibodies or fragments thereof, and/or T cell receptors or fragments thereof, as they show sufficient avidity to the MHC molecules and prevent dissociation of the MHC complexes.
row,peptide exchange yield [%],Binder
1,20 to 49,RMVEEIGVEL (synthetic peptide)
2,20 to 49,SLKEEVGEEAIV (synthetic peptide)
3,20 to 49,FLAQQESEI (synthetic peptide)
4,20 to 49,HLMDQPLSV (synthetic peptide)
5,20 to 49,SLKEEVGEEAI (synthetic peptide)
6,20 to 49,YLYDSETKNA (synthetic peptide)
7,20 to 49,FLKSGDAAIV (synthetic peptide)
8,20 to 49,TLDGAAVNQV (synthetic peptide)
9,20 to 49,APVNVTTEVKSV (synthetic peptide)
10,20 to 49,GLLEELVTV (synthetic peptide)
11,20 to 49,SVDVSPPKV (synthetic peptide)
12,20 to 49,KLFNLSKEDDV (synthetic peptide)
13,20 to 49,VMDSGDGVTHTV (synthetic peptide)
14,20 to 49,RLDQRVPQI (synthetic peptide)
15,20 to 49,TLLSNLEEA (synthetic peptide)
16,20 to 49,VLLDKIKNLQV (synthetic peptide)
17,20 to 49,VLLSEIEVA (synthetic peptide)
18,20 to 49,TFAPVNVTTEVKSV (synthetic peptide)
19,20 to 49,FLVDGSSAL (synthetic peptide)
20,20 to 49,SLDSRLELA (synthetic peptide)
21,20 to 49,VLISLKQAPLV (synthetic peptide)

row,peptide exchange yield [%],Binder
1,20 to 49,SLAAAAGKQEL (synthetic peptide)
2,20 to 49,SLSAFTLFL (synthetic peptide)
3,20 to 49,RLAGDGVGAV (synthetic peptide)
4,20 to 49,ALTQTGGPHV (synthetic peptide)
5,20 to 49,LLAGQTYHV (synthetic peptide)
6,20 to 49,SLLDDELMSL (synthetic peptide)
7,20 to 49,VLAKPGVISV (synthetic peptide)
8,20 to 49,IVDDLTINL (synthetic peptide)
9,20 to 49,AQQESEIAGI (synthetic peptide)
10,20 to 49,YLQGQRLDNVV (synthetic peptide)
11,20 to 49,ALMLQGVDL (synthetic peptide)
12,20 to 49,KLVDKSTEL (synthetic peptide)
13,20 to 49,YLEEDVYQL (synthetic peptide)
14,20 to 49,VVDEGPTGV (synthetic peptide)
15,20 to 49,SLANNVTSV (synthetic peptide)
16,20 to 49,YLQGQRLDNV (synthetic peptide)
17,20 to 49,FILDSAETTTL (synthetic peptide)
18,20 to 49,FLFDGSANLV (synthetic peptide)
19,20 to 49,GLLKKINSV (synthetic peptide)
20,20 to 49,YLDAMMNEA (synthetic peptide)
21,20 to 49,SLQEEHVAVA (synthetic peptide)

# Target: T1, peptide-receptive MHC class I molecule …
# Assay: UV-ligand exchange + anti-b2m ELISA; peptide exchange yield grade (++++ = >=75%)
# Excerpt: as §1, §2
row,peptide exchange yield [%],Binder
1,≥ 75,FLGKVVIDV (synthetic peptide)
2,≥ 75,KMDASLGNLFA (synthetic peptide)
3,≥ 75,MLMPVHFLL (synthetic peptide)

# Target: T1, peptide-receptive MHC class I molecule …
# Assay: UV-ligand exchange + anti-b2m ELISA; peptide exchange yield grade (+++ = 50%-75%)
# Excerpt: as §1, §2
row,peptide exchange yield [%],Binder
1,50 to 75,FLQEYLDAI (synthetic peptide)
2,50 to 75,ALAAILTRL (synthetic peptide)
3,50 to 75,KMFFLIDKV (synthetic peptide)
4,50 to 75,GLLDYATGAIGSV (synthetic peptide)
5,50 to 75,FVSEIVDTV (synthetic peptide)
6,50 to 75,ALLTFMEQV (synthetic peptide)
7,50 to 75,NLVEKTPALV (synthetic peptide)
8,50 to 75,LLVDDSFLHTV (synthetic peptide)
9,50 to 75,FLYKIIDEL (synthetic peptide)
10,50 to 75,FLVSNMLLAEA (synthetic peptide)
11,50 to 75,FLLDGSEGV (synthetic peptide)
12,50 to 75,ALLSGLREA (synthetic peptide)
13,50 to 75,GLAAFKAFL (synthetic peptide)

# Target: T1, peptide-receptive MHC class I molecule …
# Assay: UV-ligand exchange + anti-b2m ELISA; peptide exchange yield grade (+ = <20%)
# Excerpt: as §1, §2
row,peptide exchange yield [%],Binder
1,< 20,SSFGGLGGGSV (synthetic peptide)
2,< 20,NLKGTFATL (synthetic peptide)
3,< 20,SLAAAAGKQELA (synthetic peptide)
